According to publication PMC3135399:

Target: microtubules (taxol-stabilised, of the MT cosedimentation assay) (bovine) (UniProt Q6B856)
Experiment: co-sedimentation

Substance: alkaline phosphatase–treated WT CPC, P38283 1-698; P38991 1-367; P47134 1-954; Q3E7Y6 1-73
- percent cosedimented with MTs: 50%
